From patent publication US20220332785A1

Target: p53^R175H LP … (SEQ ID NO: 111) in the context of HLA-DRB1*13:01 (human)
Assay: cell-based or functional assay

Row | Binder | functional avidity: interferon-gamma secretion (ELISA), lowest peptide concentration recognized [ng/mL]
1 | 4285-PBL-TCR2 (TCR) TCR alpha: KTTQPPSMDCAEGRAANLPCNHSTISGNEYVYWYRQIHSQGPQYIIHGLKNNETNEMASLIITEDRKSSTLILPHATLRDTAVYYCIVRARANAGGTSYGKLTFGQGTILTVHPNIQNPEPAVYQLKDPRSQDSTLCLFTDFDSQINVPKTMESGTFITDKCVLDMKAMDSKSNGAIAWSNQTSFTCQDIFKETNATYPSSDVPCDATLTEKSFETDMNLNFQNLLVIVLRILLLKVAGFNLLMTLRLWSS TCR beta: GITQSPKYLFRKEGQNVTLSCEQNLNHDAMYWYRQDPGQGLRLIYYSQIVNDFQKGDIAEGYSVSREKKESFPLTVTSAQKNPTAFYLCASLQFNEQFFGPGTRLTVLEDLRNVTPPKVSLFEPSKAEIANKQKATLVCLARGFFPDHVELSWWVNGKEVHSGVCTDPQAYKESNYSYCLSSRLRVSATFWHNPRNHFRCQVQFHGLSEEDKWPEGSPKPVTQNISAEAWGRADCGITSASYQQGVLSATILYEILLGKATLYAVLVSTLVVMAMVKRKNS | 10
2 | 4285-PBL-TCR5 (TCR) TCR alpha: KTTQPPSMDCAEGRAANLPCNHSTISGNEYVYWYRQIHSQGPQYIIHGLKNNETNEMASLIITEDRKSSTLILPHATLRDTAVYYCIVRGSPGAGGTSYGKLTFGQGTILTVHPNIQNPEPAVYQLKDPRSQDSTLCLFTDFDSQINVPKTMESGTFITDKCVLDMKAMDSKSNGAIAWSNQTSFTCQDIFKETNATYPSSDVPCDATLTEKSFETDMNLNFQNLLVIVLRILLLKVAGFNLLMTLRLWSS TCR beta: GITQSPKYLFRKEGQNVTLSCEQNLNHDAMYWYRQDPGQGLRLIYYSQIVNDFQKGDIAEGYSVSREKKESFPLTVTSAQKNPTAFYLCASSIRTEAFFGQGTRLTVVEDLRNVTPPKVSLFEPSKAEIANKQKATLVCLARGFFPDHVELSWWVNGKEVHSGVCTDPQAYKESNYSYCLSSRLRVSATFWHNPRNHFRCQVQFHGLSEEDKWPEGSPKPVTQNISAEAWGRADCGITSASYQQGVLSATILYEILLGKATLYAVLVSTLVVMAMVKRKNS | 10
3 | 4285-PBL-TCR9 (TCR) TCR alpha: KTTQPPSMDCAEGRAANLPCNHSTISGNEYVYWYRQIHSQGPQYIIHGLKNNETNEMASLIITEDRKSSTLILPHATLRDTAVYYCIVRARANAGGTSYGKLTFGQGTILTVHPNIQNPEPAVYQLKDPRSQDSTLCLFTDFDSQINVPKTMESGTFITDKCVLDMKAMDSKSNGAIAWSNQTSFTCQDIFKETNATYPSSDVPCDATLTEKSFETDMNLNFQNLLVIVLRILLLKVAGFNLLMTLRLWSS TCR beta: GITQSPKYLFRKEGQNVTLSCEQNLNHDAMYWYRQDPGQGLRLIYYSQIVNDFQKGDIAEGYSVSREKKESFPLTVTSAQKNPTAFYLCATRTGNEAFFGQGTRLTVVEDLRNVTPPKVSLFEPSKAEIANKQKATLVCLARGFFPDHVELSWWVNGKEVHSGVCTDPQAYKESNYSYCLSSRLRVSATFWHNPRNHFRCQVQFHGLSEEDKWPEGSPKPVTQNISAEAWGRADCGITSASYQQGVLSATILYEILLGKATLYAVLVSTLVVMAMVKRKNS | 10
4 | 4285-PBL-TCR1 (TCR) TCR alpha: KTTQPNSMESNEEEPVHLPCNHSTISGTDYIHWYRQLPSQGPEYVIHGLTSNVNNRMASLAIAEDRKSSTLILHRATLRDAAVYYCILRDNNARLMFGDGTQLVVKPNIQNPEPAVYQLKDPRSQDSTLCLFTDFDSQINVPKTMESGTFITDKCVLDMKAMDSKSNGAIAWSNQTSFTCQDIFKETNATYPSSDVPCDATLTEKSFETDMNLNFQNLLVIVLRILLLKVAGFNLLMTLRLWSS TCR beta: QVTQNPRYLITVTGKKLTVTCSQNMNHEYMSWYRQDPGLGLRQIYYSMNVEVTDKGDVPEGYKVSRKEKRNFPLILESPSPNQTSLYFCASGLVGFNQPQHFGDGTRLSILEDLRNVTPPKVSLFEPSKAEIANKQKATLVCLARGFFPDHVELSWWVNGKEVHSGVCTDPQAYKESNYSYCLSSRLRVSATFWHNPRNHFRCQVQFHGLSEEDKWPEGSPKPVTQNISAEAWGRADCGITSASYQQGVLSATILYEILLGKATLYAVLVSTLVVMAMVKRKNS | 10
5 | 4285-PBL-TCR3 (TCR) TCR alpha: KDQVFQPSTVASSEGAVVEIFCNHSVSNAYNFFWYLHFPGCAPRLLVKGSKPSQQGRYNMTYERFSSSLLILQVREADAAVYYCAVEDRRRTALIFGKGTTLSVSSNIQNPEPAVYQLKDPRSQDSTLCLFTDFDSQINVPKTMESGTFITDKCVLDMKAMDSKSNGAIAWSNQTSFTCQDIFKETNATYPSSDVPCDATLTEKSFETDMNLNFQNLLVIVLRILLLKVAGFNLLMTLRLWSS TCR beta: EPEVTQTPSHQVTQMGQEVILRCVPISNHLYFYWYRQILGQKVEFLVSFYNNEISEKSEIFDDQFSVERPDGSNFTLKIRSTKLEDSAMYFCASSEYQSQSNEQFFGPGTRLTVLEDLRNVTPPKVSLFEPSKAEIANKQKATLVCLARGFFPDHVELSWWVNGKEVHSGVCTDPQAYKESNYSYCLSSRLRVSATFWHNPRNHFRCQVQFHGLSEEDKWPEGSPKPVTQNISAEAWGRADCGITSASYQQGVLSATILYEILLGKATLYAVLVSTLVVMAMVKRKNS | 10
6 | 4285-PBL-TCR7 (TCR) TCR alpha: ELKVEQNPLFLSMQEGKNYTIYCNYSTTSDRLYWYRQDPGKSLESLFVLLSNGAVKQEGRLMASLDTKARLSTLHITAAVHDLSATYFCAVAHMDSNYQLIWGAGTKLIIKPNIQNPEPAVYQLKDPRSQDSTLCLFTDFDSQINVPKTMESGTFITDKCVLDMKAMDSKSNGAIAWSNQTSFTCQDIFKETNATYPSSDVPCDATLTEKSFETDMNLNFQNLLVIVLRILLLKVAGFNLLMTLRLWSS TCR beta: GVTQTPKFRVLKTGQSMTLLCAQDMNHEYMYWYRQDPGMGLRLIHYSVGEGTTAKGEVPDGYNVSRLKKQNFLLGLESAAPSQTSVYFCASSYAGLAAPREQFFGPGTRLTVLEDLRNVTPPKVSLFEPSKAEIANKQKATLVCLARGFFPDHVELSWWVNGKEVHSGVCTDPQAYKESNYSYCLSSRLRVSATFWHNPRNHFRCQVQFHGLSEEDKWPEGSPKPVTQNISAEAWGRADCGITSASYQQGVLSATILYEILLGKATLYAVLVSTLVVMAMVKRKNS | 10
7 | 4285-PBL-TCR6 (TCR) TCR alpha: QQVMQIPQYQHVQEGEDFTTYCNSSTTLSNIQWYKQRPGGHPVFLIQLVKSGEVKKQKRLTFQFGEAKKNSSLHITATQTTDVGTYFCAGPGGAGSYQLTFGKGTKLSVIPNIQNPEPAVYQLKDPRSQDSTLCLFTDFDSQINVPKTMESGTFITDKCVLDMKAMDSKSNGAIAWSNQTSFTCQDIFKETNATYPSSDVPCDATLTEKSFETDMNLNFQNLLVIVLRILLLKVAGFNLLMTLRLWSS TCR beta: QVTQNPRYLITVTGKKLTVTCSQNMNHEYMSWYRQDPGLGLRQIYYSMNVEVTDKGDVPEGYKVSRKEKRNFPLILESPSPNQTSLYFCASSPFVVIGQINEQYFGPGTRLTVTEDLRNVTPPKVSLFEPSKAEIANKQKATLVCLARGFFPDHVELSWWVNGKEVHSGVCTDPQAYKESNYSYCLSSRLRVSATFWHNPRNHFRCQVQFHGLSEEDKWPEGSPKPVTQNISAEAWGRADCGITSASYQQGVLSATILYEILLGKATLYAVLVSTLVVMAMVKRKNS | 10
